For two substances, in vitro cytological activity, EC50 (luciferase reporter, GLP-2R/Luc-CHO cells) and In vitro cytological activity, EC50 (Ba/f3-GHR cells, MTT) results are on record in patent US20220119448A1.

For test [1], the target named is GLP-2R (GLP-2 receptor) on GLP-2R/Luc-CHO cells. The test is described as follows: cell-based or functional assay.
Another test concerns the target GHR on Ba/f3-GHR cells. The test can be described thus: cell-based or functional assay.

For “GLP-2 (Hangzhou Chinese Peptide Biochemical Co., Ltd., Cat. No: GLUC-002A)”, the in vitro cytological activity, EC50 (luciferase reporter, GLP-2R/Luc-CHO cells) in test [1] is 5.2 nM.
“hGH (human auxin) (from UniProt P01241 27-217) (ligand)” showed an In vitro cytological activity, EC50 (Ba/f3-GHR cells, MTT) in the test with GHR on Ba/f3-GHR cells of 0.54 nM.
